Common to all, as to conditions: remark: other sources report otherwise
Assay [1] has as its target T1, human arachidonate 12S-Lipoxygenase (12-LOX) (human), P18054.
T1 chain: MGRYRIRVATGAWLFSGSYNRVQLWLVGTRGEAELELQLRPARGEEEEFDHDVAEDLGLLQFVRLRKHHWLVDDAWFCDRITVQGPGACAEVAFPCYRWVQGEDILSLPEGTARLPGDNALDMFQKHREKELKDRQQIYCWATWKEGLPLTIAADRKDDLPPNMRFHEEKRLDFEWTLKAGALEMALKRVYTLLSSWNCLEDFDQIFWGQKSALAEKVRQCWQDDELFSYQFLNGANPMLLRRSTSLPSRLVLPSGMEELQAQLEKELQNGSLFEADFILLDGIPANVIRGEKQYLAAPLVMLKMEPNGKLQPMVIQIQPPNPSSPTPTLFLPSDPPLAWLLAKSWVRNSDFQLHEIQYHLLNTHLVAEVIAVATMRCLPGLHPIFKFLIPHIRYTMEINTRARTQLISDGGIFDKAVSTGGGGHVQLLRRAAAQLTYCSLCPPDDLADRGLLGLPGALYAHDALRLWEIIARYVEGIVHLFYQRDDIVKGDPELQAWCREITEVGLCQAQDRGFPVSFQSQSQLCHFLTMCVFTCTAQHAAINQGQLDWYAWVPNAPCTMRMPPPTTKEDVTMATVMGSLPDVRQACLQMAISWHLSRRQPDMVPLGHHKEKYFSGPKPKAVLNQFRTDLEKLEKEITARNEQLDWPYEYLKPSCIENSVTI
Description: cryo-EM structure.

Assay [2] has as its target T1, human arachidonate 12S-Lipoxygenase …. Nature of the assay: cryo-EM structure.
For assay [3] the target is unchanged. Description: cryo-EM structure.
The target is the same in assay [4]. Description: SEC.

Several values for one entry are separate records, joined by “and”; a condition that tells them apart may be missing. Equal entries are not always repeated.

B1: human arachidonate 12S-Lipoxygenase (12-LOX), P18054 1-663 (enzyme)
chain: MGRYRIRVATGAWLFSGSYNRVQLWLVGTRGEAELELQLRPARGEEEEFDHDVAEDLGLLQFVRLRKHHWLVDDAWFCDRITVQGPGACAEVAFPCYRWVQGEDILSLPEGTARLPGDNALDMFQKHREKELKDRQQIYCWATWKEGLPLTIAADRKDDLPPNMRFHEEKRLDFEWTLKAGALEMALKRVYTLLSSWNCLEDFDQIFWGQKSALAEKVRQCWQDDELFSYQFLNGANPMLLRRSTSLPSRLVLPSGMEELQAQLEKELQNGSLFEADFILLDGIPANVIRGEKQYLAAPLVMLKMEPNGKLQPMVIQIQPPNPSSPTPTLFLPSDPPLAWLLAKSWVRNSDFQLHEIQYHLLNTHLVAEVIAVATMRCLPGLHPIFKFLIPHIRYTMEINTRARTQLISDGGIFDKAVSTGGGGHVQLLRRAAAQLTYCSLCPPDDLADRGLLGLPGALYAHDALRLWEIIARYVEGIVHLFYQRDDIVKGDPELQAWCREITEVGLCQAQDRGFPVSFQSQSQLCHFLTMCVFTCTAQHAAINQGQLDWYAWVPNAPCTMRMPPPTTKEDVTMATVMGSLPDVRQACLQMAISWHLSRRQPDMVPLGHHKEKYFSGPKPKAVLNQFRTDLEKLEKEITARNEQLDWPYEYLKPSCIENSVTI
Consider B1, for which the stoichiometry N in assay [1] is 2 and 4 and 6; in assay [2] it was 4; in assay [3], 4; in assay [4], 2 and 4.

For the origin of these results see paper doi:10.1101/2023.03.10.532002.
